Here are results for one molecule from article PMC3996484, “Apoptosis Therapy in Cancer: The First Single-molecule Co-activating p53 and the Translocator Protein in Glioblastoma” (Scientific Reports, 2014).

In this experiment the target is T1, recombinant human His-tagged p53 protein (residues 1-312) (human, UniProt P04637 1-312).
T1 construct: p53 tumor suppressor, human, residues 1-312; source: final buffer with 0.2 mM ZnCl2
Put plainly: NMR titration; AIDA, 1D proton NMR of tryptophan side chain NH-epsilon signals of p53 alone and of the MDM2/p53 complex; 0.1 mM proteins, 20 mM TrisHCl, 150 mM KCl, pH 7.4, 5 mM beta-mercaptoethanol, 0.02% NaN3, 25°C, 700 MHz. As to conditions: both partners purified.

T1 sequence (P04637 1-312): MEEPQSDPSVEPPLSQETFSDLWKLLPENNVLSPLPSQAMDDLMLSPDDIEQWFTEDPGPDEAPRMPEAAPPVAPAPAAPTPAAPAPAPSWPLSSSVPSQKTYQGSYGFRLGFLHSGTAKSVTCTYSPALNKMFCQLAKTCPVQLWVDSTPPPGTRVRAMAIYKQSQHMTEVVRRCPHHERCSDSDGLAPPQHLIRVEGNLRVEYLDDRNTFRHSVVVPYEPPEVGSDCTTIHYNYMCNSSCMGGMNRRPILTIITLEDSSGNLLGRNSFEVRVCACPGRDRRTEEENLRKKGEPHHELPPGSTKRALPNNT

B1: recombinant human His-tagged N-terminal region of MDM2 (residues 1-118) (domain or fragment, UniProt Q00987 1-118, looked up)
chain: MCNTNMSVPTDGAVTTSQIPASEQETLVRPKPLLLKLLKSVGAQKDTYTMKEVLFYLGQYIMTKRLYDEKQQHIVYCSNDLLGDLFGVPSFSVKEHRKIYTMIYRNLVVVNQQESSDS
notes: MDM2 (murine double minute 2), human, N-terminal region, residues 1-118; Cloned in a derivative of the vector pET-46Ek/LIC (Novagen); also called murine double minute 2
Take B1: the binding result was “binds”.
